Laboratory results from patent US20230355708A1 (priority 2020, published 2023).
Entries after “also recorded” stand apart in the source; their conditions may differ.

Tests used:
[1] = system: SARS-CoV-2 pseudoviruses; type: cell-based
[2] = system: SARS-CoV-1 pseudoviruses; type: cell-based
[3] = system: HIV-1 pseudovirus; type: cell-based
[4] = system: SARS-CoV-2 pseudoviruses
[5] = system: SARS-CoV-1 pseudoviruses
[6] = system: HIV-1 pseudovirus
[7] = system: Env Neg pseudovirus
[8] = system: SARS-CoV-2 pseudoviruses; type: cell-based; remark: listed apart in the source
[9] = system: SARS-CoV-1 pseudoviruses; type: cell-based; remark: listed apart in the source
[10] = target: SARS-CoV-2 spike S1 subunit (Severe acute respiratory syndrome coronavirus 2, UniProt P0DTC2)
[11] = target: SARS-CoV-2 spike S2 subunit (Severe acute respiratory syndrome coronavirus 2, UniProt P0DTC2)
[12] = target: gp120 (Human immunodeficiency virus type 1 group M subtype B, UniProt P35961); settings: SPR
[13] = target: receptor binding domain (RBD) (Severe acute respiratory syndrome coronavirus 2, UniProt P0DTC2)

Row | Molecule | inhibition of SARS-CoV-2 pseudovirus infection [1] | inhibition of SARS-CoV-1 pseudovirus infection [2] | inhibition of HIV-1 infection [3] | virolysis of SARS-CoV-2 pseudoviruses [4] | virolysis of SARS-CoV-1 pseudoviruses [5] | virolysis of HIV-1 [6] | virolysis of Env Neg pseudovirus [7] | irreversible inactivation of SARS-CoV-2 [8] | irreversible inactivation of SARS-CoV-1 [9] | binding of S1 to lectin [10] | stability of lectin-S2 complexes [11] | stoichiometry of binding, S2 versus S1 [11] | binding to gp120 [12] | binding to receptor binding domain (RBD) [13] | binding to S1 subunit [10] | binding to S2 subunit [11]
1 | CVN: lectin cyanovirin-N, SEQ ID NO:1 (protein) LGKFSQTCYNSAIQGSVLTSTCERTNGGYNTSSIDLNSVIENVDGSLKWQPSNFIETCRNTQLAGSSELAAECKTRAQQFVSTKINLDDHIANIDGTLKYE | inhibited infection at nanomolar potencies | inhibition | inhibition | more potent than CVN-DLI; also recorded: capable of causing cell-free virolysis | no virolytic effect | no virolytic effect | no virolytic effect | irreversible inactivation | irreversible inactivation | Relatively lower binding | very stable | higher to the S2 subunit | occurred | no binding | – | –
2 | P51G-CVN: mutant CVN wherein Pro 51 is mutated to Gly, SEQ ID NO:3 (protein) LGKFSQTCYNSAIQGSVLTSTCERTNGGYNTSSIDLNSVIENVDGSLKWQGSNFIETCRNTQLAGSSELAAECKTRAQQFVSTKINLDDHIANIDGTLKYE | decreased inhibition of infection | – | – | reduced virolysis | – | – | – | – | – | – | – | – | – | – | reduced affinity as compared to CVN | reduced affinity as compared to CVN
